From article PMC2749713

Columns and labels:
[1] = target: AB’C PP2A holoenzyme with GST-tagged A subunit (GST-A, B’ and C subunits) (human) (UniProt P30153); test: pull-down
[2] = target: Sgo1(51-96) peptide (human) (UniProt Q5FBB7); test: crystal structure

AB’C PP2A holoenzyme with GST-tagged A subunit (GST-A, B’ and C subunits) (human), sequence (P30153 2-589, chain 1 of 3): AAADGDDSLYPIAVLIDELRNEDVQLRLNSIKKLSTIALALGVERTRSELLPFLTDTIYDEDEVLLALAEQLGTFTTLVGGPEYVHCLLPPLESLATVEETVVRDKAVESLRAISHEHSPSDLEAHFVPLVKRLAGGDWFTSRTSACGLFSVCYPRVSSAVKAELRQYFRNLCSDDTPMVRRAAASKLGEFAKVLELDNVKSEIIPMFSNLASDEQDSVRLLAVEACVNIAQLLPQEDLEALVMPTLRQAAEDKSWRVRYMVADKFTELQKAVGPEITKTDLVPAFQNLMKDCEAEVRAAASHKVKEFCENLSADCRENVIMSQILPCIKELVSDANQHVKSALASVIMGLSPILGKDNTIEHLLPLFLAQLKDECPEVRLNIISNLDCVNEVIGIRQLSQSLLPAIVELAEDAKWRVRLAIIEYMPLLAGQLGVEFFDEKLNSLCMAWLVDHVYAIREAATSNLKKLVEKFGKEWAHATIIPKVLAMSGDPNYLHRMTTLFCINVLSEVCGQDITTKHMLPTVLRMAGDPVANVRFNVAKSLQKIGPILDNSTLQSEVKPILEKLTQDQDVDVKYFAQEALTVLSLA
AB’C PP2A holoenzyme with GST-tagged A subunit (GST-A, B’ and C subunits) (human), sequence (Q13362 whole entry, chain 2 of 3, further chain): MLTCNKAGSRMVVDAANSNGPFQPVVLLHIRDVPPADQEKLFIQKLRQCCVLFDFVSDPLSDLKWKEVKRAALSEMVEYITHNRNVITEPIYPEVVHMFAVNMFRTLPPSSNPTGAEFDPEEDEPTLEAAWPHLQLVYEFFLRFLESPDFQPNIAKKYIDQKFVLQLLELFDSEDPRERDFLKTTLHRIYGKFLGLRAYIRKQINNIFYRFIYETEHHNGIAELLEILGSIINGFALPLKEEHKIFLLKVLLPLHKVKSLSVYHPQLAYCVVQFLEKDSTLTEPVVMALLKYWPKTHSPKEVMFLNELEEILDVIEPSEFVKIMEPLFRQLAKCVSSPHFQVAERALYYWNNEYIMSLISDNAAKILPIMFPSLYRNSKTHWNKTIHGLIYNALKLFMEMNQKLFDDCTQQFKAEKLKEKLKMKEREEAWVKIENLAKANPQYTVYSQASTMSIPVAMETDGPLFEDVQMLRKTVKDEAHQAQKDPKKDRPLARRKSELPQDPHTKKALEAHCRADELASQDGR
AB’C PP2A holoenzyme with GST-tagged A subunit (GST-A, B’ and C subunits) (human), sequence (P67775 whole entry, chain 3 of 3, further chain): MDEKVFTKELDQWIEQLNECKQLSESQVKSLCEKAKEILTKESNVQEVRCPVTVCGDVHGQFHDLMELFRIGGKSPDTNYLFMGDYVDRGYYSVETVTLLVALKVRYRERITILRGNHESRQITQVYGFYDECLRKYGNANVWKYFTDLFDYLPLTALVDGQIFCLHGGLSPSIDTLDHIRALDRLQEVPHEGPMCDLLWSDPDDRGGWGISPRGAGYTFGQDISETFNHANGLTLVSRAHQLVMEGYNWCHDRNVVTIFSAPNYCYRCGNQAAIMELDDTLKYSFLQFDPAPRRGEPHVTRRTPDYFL

| stoichiometry N (Sgo2 per PP2A) [1] | stoichiometry N [2] | Substance |
| --- | --- | --- |
| 2 | – | MBP-Sgo2(45-117) (from UniProt Q7TSY8 45-117) (domain or fragment) |
| – | 2 | Sgo1(51-96) peptide (from UniProt Q5FBB7 51-96) |
